From patent US20260132214A1 (JECHO LABORATORIES, published 2026) come the findings set out here.

Assay [1] concerns the target T1, Glypican 3 Protein, Human, Recombinant (His Tag) (Sino Biological, Cat #10088-H08H) (human, UniProt P51654 25-559).
T1 construct: Bought recombinant protein; also called Hu-GPC3 (10088-H08H); human GPC3; not shown: His tag
In words: sandwich-style epitope binning, Octet AHC biosensor, 300 nM human GPC3. On the technique in general: In BLI a coated tip is dipped into the sample, and binding shifts an interference pattern.

The target of assay [2] is T1, Glypican 3 Protein, Human, Recombinant …. In words: Octet QKe BLI, antibody on AHC probe, antigen in solution, 1:1 fit.
The target of assay [3] is Cy-GPC3 (GP3-C5225) (Cy (so in the source)). Described as above.
Assay [4] deals with T1, Glypican 3 Protein, Human, Recombinant …. In words: Octet QKe BLI, IgG on AHC probe, GPC3 (Sino Biological) in solution, 1:1 fit.
Assay [5] addresses T2, GPC3 expressed on the cell surface of HepG2, Huh7 and Hep3B cells (human, UniProt P51654 25-554).
T2 construct: Endogenous GPC3 of human liver tumour cell lines; also called Glypican 3 protein on the cell surface; endogenously expressed GPC3
In words: flow cytometry, Fab titrated on Hep3B cells. For orientation: In flow cytometry, cells or beads pass a laser one at a time.

The target in assay [6] is T3, Fc-tagged human Glypican 3 protein (Acro Biosystems, cat #GP3-H5258) (human, UniProt P51654 25-559).
T3 construct: Bought; also called recombinant human GPC3; not shown: Fc tag
The experiment in a line: ELISA, Fab titrated on coated Fc-tagged human GPC3, anti-Lambda HRP detection. A general note: ELISA stands for enzyme-linked immunosorbent assay.

One may read the Kd as the equilibrium constant for the complex coming apart. The koff is a measure of how fast the partners let go of each other. As usually defined, the kon is the rate constant with which the complex forms. As a reminder, the EC50 is the concentration needed to bring the measured effect to its halfway point. A higher EC50 goes with lower potency in that assay.

T2 sequence (P51654 25-554 limits assumed): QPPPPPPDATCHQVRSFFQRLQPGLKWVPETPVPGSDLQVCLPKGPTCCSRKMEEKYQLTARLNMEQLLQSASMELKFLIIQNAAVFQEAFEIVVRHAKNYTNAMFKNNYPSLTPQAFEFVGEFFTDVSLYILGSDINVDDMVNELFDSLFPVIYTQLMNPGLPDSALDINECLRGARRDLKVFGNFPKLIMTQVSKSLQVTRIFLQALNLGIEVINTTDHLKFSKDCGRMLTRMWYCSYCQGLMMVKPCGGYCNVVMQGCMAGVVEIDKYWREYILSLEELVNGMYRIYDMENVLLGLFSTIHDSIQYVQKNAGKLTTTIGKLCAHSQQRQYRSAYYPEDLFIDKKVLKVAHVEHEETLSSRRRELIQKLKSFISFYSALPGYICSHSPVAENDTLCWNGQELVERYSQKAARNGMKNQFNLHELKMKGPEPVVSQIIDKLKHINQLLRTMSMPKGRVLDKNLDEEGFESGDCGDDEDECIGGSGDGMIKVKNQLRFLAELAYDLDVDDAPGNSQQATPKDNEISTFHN
T3 sequence (P51654 25-559 limits assumed): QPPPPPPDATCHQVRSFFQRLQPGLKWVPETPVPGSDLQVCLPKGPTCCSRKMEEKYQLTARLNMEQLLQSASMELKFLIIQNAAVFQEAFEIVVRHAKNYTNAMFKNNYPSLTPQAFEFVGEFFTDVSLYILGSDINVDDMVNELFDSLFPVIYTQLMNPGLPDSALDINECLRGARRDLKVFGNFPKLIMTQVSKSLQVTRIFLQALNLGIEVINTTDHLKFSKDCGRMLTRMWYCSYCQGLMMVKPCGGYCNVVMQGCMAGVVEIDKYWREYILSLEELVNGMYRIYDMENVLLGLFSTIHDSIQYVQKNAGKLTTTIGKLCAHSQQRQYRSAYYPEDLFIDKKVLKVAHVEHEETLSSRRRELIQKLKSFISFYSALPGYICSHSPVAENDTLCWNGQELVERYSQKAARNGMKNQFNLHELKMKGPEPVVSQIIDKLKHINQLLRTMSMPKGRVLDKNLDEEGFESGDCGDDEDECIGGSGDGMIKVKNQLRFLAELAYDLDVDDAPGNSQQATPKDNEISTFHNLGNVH
T1 sequence (P51654 25-559 limits assumed): as above

B1: P19 anti-GPC3 scFv-Fc (Fc fusion)
VH: EVQLVESGGGLVKPGGSLRLSCAASGFTFSDYYMSWIRQAPGKGLEWVSYISSSGSTIYYADSVKGRFTISRDNAKNSLYLQMNSLRAEDTAVYYCASVYMDVWGKGTTVTVSS
VL: EIVMTQSPGTLSLSPGERATLSCRASQTVSSSSLAWYQQRPGQAPRLLIYETSSRATGIPDRFSGSGSGTDFTLTISRLEPEDFAIYYCQQKGDSGYTFGQGTKVEIK
notes: scFv-Fc, human IgG1 constant regions
Turning to B1, the binding result in assay [1] is given as “binds”.

B2: P20 anti-GPC3 scFv-Fc (Fc fusion)
VH: EVQLVESGGGLVKPGGSLRLSCAASGFTFSDYYMSWIRQAPGKGLEWVSYISSSGSTIYYADSVKGRFTISRDNAKNSLYLQMNSLRAEDTAVYYCASVYMDVWGKGTTVTVSS
VL: SYELTQPPSVSVAPGQTARITCGGNNIGSKSVHWYQQKPGQAPVLVVYDDSDRPSGVPERFSGSNSGNTATLTISRVEAGDEADYYCQVWDNSSDHQVFGGGTKLTVL
notes: scFv-Fc, human IgG1 constant regions; The VH as printed is the same as that of P19
In the case of B2, in assay [2], the Kd amounted to 100 nM.

B3: P3 anti-GPC3 scFv-Fc (Fc fusion)
VH: QVQLQQSGPGLVKPSQTLSITCAISGDSVSSNSAAWNWIRQSPSRGLEWLGRTYYRSKWYNDYAVSVKSRITINPDTSKNQFSLQLNSVTPEDTAVYYCASSYYNGGYFDYWGQGTLVTVSS
VL: EIVLTQSPATLSVSPGGRATLSCRASQSVTTNLAWYQQKPGQAPRLLIYGASTRVTGVPRRFSGSGSGTDFTLTISSLQSEDSAVYYCQQYSGWGGFGGGTKVDIK
notes: as for B1
For the molecule B3, the Kd in assay [2] was determined as 20.1 nM; in assay [3] it was 5.45 nM.

B4: 71 anti-GPC3 scFv-Fc (Fc fusion)
VH: QVQLVESGGGVVQPGRSLRLSCAASGFTFSSYAMHWVRQAPGKGLEWVAVISYDGSNKYYADSVKGRFTISRDNSKNTLYLQMNSLRAEDTAVYYCARGGDGYNAAFDIWGQGTMVTVSS
VL: NFMLTQPPSVSESPGKTVTISCTGSSGSIASNYVQWYQQRPGSAPTTVIYEDNQRPSGVPDRFSGSIDSSSNSASLTISGLKTEDEADYYCQSYDSSKHYVFGTGTKVTVL
notes: as for B1
For the molecule B4, the binding result in assay [1] was “binds”.

B5: P17 WT IgG (antibody, V domains shown)
VH: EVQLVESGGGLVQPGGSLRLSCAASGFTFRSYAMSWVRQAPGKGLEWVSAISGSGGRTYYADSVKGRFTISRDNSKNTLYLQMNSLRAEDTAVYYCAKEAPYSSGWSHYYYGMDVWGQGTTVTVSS
VL: QSVLTQPPSVSGAPGQRVTISCTGSSSGYDVHWYQQLPGRAPKLLIYGSNNRPSGVPDRFSGSNSGTSASLAITGLQAEDEADYYCQSYDSSLNAIFGGGTKLTVL
notes: IgG
As for B5, in assay [4], the Kd is 5.99 nM, the koff was found to be 0.000833 s⁻¹ and the kon was found to be 139000 M⁻¹ s⁻¹.

B6: P17-15D5 Fab (Fab, V domains shown)
VH: EVQLVESGGGLVQPGGSLRLSCAASGFTFANYAMSWVRQAPGKGLEWVSDVSASGVGTYYADSVKGRFTISRDNSKNTLYLQMNSLRAEDTAVYYCAKEVDFKLGWMHYYYGMDVWGQGTTVTVSS
VL: QSVLTQPPSVSGAPGQRVTISCTGSSSGYDVHWYQQLPGRAPKLLIYGSNNRPSGVPDRFSGSNSGTSASLAITGLQAEDEADYYCQSYDSSLNAIFGGGTKLTVL
notes: Fab format
For the molecule B6, the EC50 in assay [5] was determined as 9.7 ng/mL; in assay [6], 9 ng/mL.

B7: P17 WT Fab (Fab, V domains shown)
VH: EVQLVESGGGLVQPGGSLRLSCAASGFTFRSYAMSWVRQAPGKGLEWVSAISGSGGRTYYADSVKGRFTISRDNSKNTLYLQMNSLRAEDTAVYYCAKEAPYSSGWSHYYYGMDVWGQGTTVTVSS
VL: QSVLTQPPSVSGAPGQRVTISCTGSSSGYDVHWYQQLPGRAPKLLIYGSNNRPSGVPDRFSGSNSGTSASLAITGLQAEDEADYYCQSYDSSLNAIFGGGTKLTVL
notes: Fab format, lambda light chain (detected with an anti-Lambda antibody)
B7: the figures for the EC50 in assay [5] and in assay [6] were 21.3 ng/mL and 191 ng/mL, respectively.

B8: P17-16A1 IgG (antibody, V domains shown)
VH: EVQLVESGGGLVQPGGSLRLSCAASGFTFKRYAMSWVRQAPGKGLEWVSSVSSSGTGTYYADSVKGRFTISRDNSKNTLYLQMNSLRAEDTAVYYCAKEYDYGLGWMHYYYGMDVWGQGTTVTVSS
VL: QSVLTQPPSVSGAPGQRVTISCTGSSSGYDVHWYQQLPGRAPKLLIYGSNNRPSGVPDRFSGSNSGTSASLAITGLQAEDEADYYCQSYDSSLNAIFGGGTKLTVL
notes: IgG
Take B8: in assay [4], the Kd is 0.00117 nM, the koff was 2.51e-07 s⁻¹ and the kon amounted to 215000 M⁻¹ s⁻¹.

B9: P17-13F3 Fab (Fab, V domains shown)
VH: EVQLVESGGGLVQPGGSLRLSCAASGFTFEGYAMSWVRQAPGKGLEWVSNVSGSGDGTYYADSVKGRFTISRDNSKNTLYLQMNSLRAEDTAVYYCAKEYDYKTGWMHYYYGMDVWGQGTTVTVSS
VL: QSVLTQPPSVSGAPGQRVTISCTGSSSGYDVHWYQQLPGRAPKLLIYGSNNRPSGVPDRFSGSNSGTSASLAITGLQAEDEADYYCQSYDSSLNAIFGGGTKLTVL
notes: Fab format
In the case of B9, the EC50 in assay [5] was 14.8 ng/mL; in assay [6] it was 11.7 ng/mL.

B10: P17-8E12 Fab (Fab, V domains shown)
VH: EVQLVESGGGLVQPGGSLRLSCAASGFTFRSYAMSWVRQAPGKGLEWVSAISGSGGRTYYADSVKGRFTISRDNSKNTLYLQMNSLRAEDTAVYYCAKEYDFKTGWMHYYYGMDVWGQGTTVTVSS
VL: QSVLTQPPSVSGAPGQRVTISCTGSSSGYDVHWYQQLPGRAPKLLIYGSNNRPSGVPDRFSGSNSGTSASLAITGLQAEDEADYYCQSYDSSLNAIFGGGTKLTVL
notes: Fab format
As for B10, the EC50 in assay [5] is 8.3 ng/mL; in assay [6] it was 9.6 ng/mL.

B11: P17-11F4 Fab (Fab, V domains shown)
VH: EVQLVESGGGLVQPGGSLRLSCAASGFTFKDYAMSWVRQAPGKGLEWVSALSGSGGATYYADSVKGRFTISRDNSKNTLYLQMNSLRAEDTAVYYCAKEMDFRYGWMHYYYGMDVWGQGTTVTVSS
VL: QSVLTQPPSVSGAPGQRVTISCTGSSSGYDVHWYQQLPGRAPKLLIYGSNNRPSGVPDRFSGSNSGTSASLAITGLQAEDEADYYCQSYDSSLNAIFGGGTKLTVL
notes: Fab format
Turning to B11, the results for the EC50 in assay [5] and in assay [6] were 9.9 ng/mL and 9.5 ng/mL, respectively.

B12: P17-13G2 Fab (Fab, V domains shown)
VH: EVQLVESGGGLVQPGGSLRLSCAASGFTFGEYAMSWVRQAPGKGLEWVSGMSGSGDGTYYADSVKGRFTISRDNSKNTLYLQMNSLRAEDTAVYYCAKEMDYQLGWMHYYYGMDVWGQGTTVTVSS
VL: QSVLTQPPSVSGAPGQRVTISCTGSSSGYDVHWYQQLPGRAPKLLIYGSNNRPSGVPDRFSGSNSGTSASLAITGLQAEDEADYYCQSYDSSLNAIFGGGTKLTVL
notes: Fab format
As for B12, the concentration giving a half-maximal response (EC50) stood at 13 ng/mL in assay [5] and 8.4 ng/mL in assay [6].

B13: P17-16A11 Fab (Fab, V domains shown)
VH: EVQLVESGGGLVQPGGSLRLSCAASGFTFDRYAMSWVRQAPGKGLEWVSSLSASGSGTYYADSVKGRFTISRDNSKNTLYLQMNSLRAEDTAVYYCAKEYDFSYGWMHYYYGMDVWGQGTTVTVSS
VL: QSVLTQPPSVSGAPGQRVTISCTGSSSGYDVHWYQQLPGRAPKLLIYGSNNRPSGVPDRFSGSNSGTSASLAITGLQAEDEADYYCQSYDSSLNAIFGGGTKLTVL
notes: Fab format
With B13, the EC50 in assay [5] was 8.3 ng/mL; in assay [6] it was 8.7 ng/mL.

B14: P17-16E6 IgG (antibody, V domains shown)
VH: EVQLVESGGGLVQPGGSLRLSCAASGFTFRKYAMSWVRQAPGKGLEWVSSLSASGSATYYADSVKGRFTISRDNSKNTLYLQMNSLRAEDTAVYYCAKEADYSMGWMHYYYGMDVWGQGTTVTVSS
VL: QSVLTQPPSVSGAPGQRVTISCTGSSSGYDVHWYQQLPGRAPKLLIYGSNNRPSGVPDRFSGSNSGTSASLAITGLQAEDEADYYCQSYDSSLNAIFGGGTKLTVL
notes: IgG
As to B14, in assay [4], the Kd was 0.00133 nM, the koff was 2.76e-07 s⁻¹ and the kon stood at 208000 M⁻¹ s⁻¹.

B15: P17-16A1 Fab (Fab, V domains shown)
VH: EVQLVESGGGLVQPGGSLRLSCAASGFTFKRYAMSWVRQAPGKGLEWVSSVSSSGTGTYYADSVKGRFTISRDNSKNTLYLQMNSLRAEDTAVYYCAKEYDYGLGWMHYYYGMDVWGQGTTVTVSS
VL: QSVLTQPPSVSGAPGQRVTISCTGSSSGYDVHWYQQLPGRAPKLLIYGSNNRPSGVPDRFSGSNSGTSASLAITGLQAEDEADYYCQSYDSSLNAIFGGGTKLTVL
notes: Fab format
Take B15: the values for the EC50 in assay [5] and in assay [6] were 7.4 ng/mL and 9.3 ng/mL, respectively.

B16: P17-15F8 Fab (Fab, V domains shown)
VH: EVQLVESGGGLVQPGGSLRLSCAASGFTFGNYAMSWVRQAPGKGLEWVSGVSGSGDGTYYADSVKGRFTISRDNSKNTLYLQMNSLRAEDTAVYYCAKEYDFGLGWMHYYYGMDVWGQGTTVTVSS
VL: QSVLTQPPSVSGAPGQRVTISCTGSSSGYDVHWYQQLPGRAPKLLIYGSNNRPSGVPDRFSGSNSGTSASLAITGLQAEDEADYYCQSYDSSLNAIFGGGTKLTVL
notes: Fab format
In the case of B16, the EC50 in assay [5] was 10.4 ng/mL; in assay [6], 8.9 ng/mL.

B17: P17-16E6 Fab (Fab, V domains shown)
VH: EVQLVESGGGLVQPGGSLRLSCAASGFTFRKYAMSWVRQAPGKGLEWVSSLSASGSATYYADSVKGRFTISRDNSKNTLYLQMNSLRAEDTAVYYCAKEADYSMGWMHYYYGMDVWGQGTTVTVSS
VL: QSVLTQPPSVSGAPGQRVTISCTGSSSGYDVHWYQQLPGRAPKLLIYGSNNRPSGVPDRFSGSNSGTSASLAITGLQAEDEADYYCQSYDSSLNAIFGGGTKLTVL
notes: Fab format
B17: the EC50 was determined as 8.5 ng/mL in assay [5] and 9.6 ng/mL in assay [6].

B18: P17-16A11 IgG (antibody, V domains shown)
VH: EVQLVESGGGLVQPGGSLRLSCAASGFTFDRYAMSWVRQAPGKGLEWVSSLSASGSGTYYADSVKGRFTISRDNSKNTLYLQMNSLRAEDTAVYYCAKEYDFSYGWMHYYYGMDVWGQGTTVTVSS
VL: QSVLTQPPSVSGAPGQRVTISCTGSSSGYDVHWYQQLPGRAPKLLIYGSNNRPSGVPDRFSGSNSGTSASLAITGLQAEDEADYYCQSYDSSLNAIFGGGTKLTVL
notes: IgG
B18: in assay [4], the Kd is 0.00103 nM, the koff was determined as 1.87e-07 s⁻¹ and the kon is 182000 M⁻¹ s⁻¹.
